Test results: PMC2933242

Target: T1, ERRα (estrogen-related receptor alpha) (UniProt P11474)
T1 sequence: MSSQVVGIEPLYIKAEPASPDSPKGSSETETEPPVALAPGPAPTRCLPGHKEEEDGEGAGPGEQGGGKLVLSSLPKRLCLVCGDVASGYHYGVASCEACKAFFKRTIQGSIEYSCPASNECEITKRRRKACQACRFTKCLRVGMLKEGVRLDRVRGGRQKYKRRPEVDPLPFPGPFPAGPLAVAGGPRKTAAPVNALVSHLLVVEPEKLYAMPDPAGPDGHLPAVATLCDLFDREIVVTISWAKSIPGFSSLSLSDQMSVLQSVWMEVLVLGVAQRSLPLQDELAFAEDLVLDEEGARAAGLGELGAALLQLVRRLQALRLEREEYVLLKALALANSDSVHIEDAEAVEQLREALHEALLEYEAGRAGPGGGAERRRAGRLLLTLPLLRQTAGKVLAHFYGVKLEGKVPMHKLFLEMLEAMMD
Assay: competition
Conditions: 10-, 50-, EMSA with 15,000 cpm probe per reaction, buffer, salt, pH and temperature not given (as in ref 28)

Sequence	binding signal (fold IC50 (reference)) (unlabeled G vs 32P G probe, 100-fold excess)	binding signal (fold IC50 (A competitor / G competitor)) (vs 32P G probe, 100-fold excess of competitor)
GATCTAGCTCCTGCAGGTTCTCAAGGTTGTAGCCCGCACCCTGCTGATC (double strand) [PPARA -54,642 G probe (with -54,645 C)]	1	–
GATCTAGCTCCTGCAGGTTCTCAAGGTTGTAGTCCACACCCTGCTGATC (double strand) [PPARA -54,642 A probe (with -54,645 T)]	–	2.3
